Measured values: PMC2992532, “A tryptophan-rich peptide acts as a transcription activation domain” (BMC Molecular Biology, 2010)

Target: T1, LexA-TFIIB fusion protein (UniProt P29055 1-345)
T1 sequence (looked up): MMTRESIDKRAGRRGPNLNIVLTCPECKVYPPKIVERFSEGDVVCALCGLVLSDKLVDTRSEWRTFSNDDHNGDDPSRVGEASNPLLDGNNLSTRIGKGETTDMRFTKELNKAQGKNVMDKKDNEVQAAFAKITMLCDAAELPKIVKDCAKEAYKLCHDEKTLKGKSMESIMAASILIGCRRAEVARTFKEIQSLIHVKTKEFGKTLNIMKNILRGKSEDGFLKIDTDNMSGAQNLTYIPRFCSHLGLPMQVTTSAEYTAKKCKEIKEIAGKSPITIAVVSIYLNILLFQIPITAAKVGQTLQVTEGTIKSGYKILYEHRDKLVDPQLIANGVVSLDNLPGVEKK
Assay: cell-based or functional assay

transcriptional activity (beta-gal reporter) of W7 fused to LexA, relative to the native pentapeptide WYDWW fused to LexA: ~3 fold
Binder: WWWWWWW [B42-W7 fusion protein (heptatryptophan, W7)]
